Source: article PMC8529090 (Computational and Structural Biotechnology Journal, 2021)

B1: recombinant L1CAM ectodomain (L1CAM-ED) (domain or fragment, human, UniProt P32004 20-1120, looked up)
chain: IQIPEEYEGHHVMEPPVITEQSPRRLVVFPTDDISLKCEASGKPEVQFRWTRDGVHFKPKEELGVTVYQSPHSGSFTITGNNSNFAQRFQGIYRCFASNKLGTAMSHEIRLMAEGAPKWPKETVKPVEVEEGESVVLPCNPPPSAEPLRIYWMNSKILHIKQDERVTMGQNGNLYFANVLTSDNHSDYICHAHFPGTRTIIQKEPIDLRVKATNSMIDRKPRLLFPTNSSSHLVALQGQPLVLECIAEGFPTPTIKWLRPSGPMPADRVTYQNHNKTLQLLKVGEEDDGEYRCLAENSLGSARHAYYVTVEAAPYWLHKPQSHLYGPGETARLDCQVQGRPQPEVTWRINGIPVEELAKDQKYRIQRGALILSNVQPSDTMVTQCEARNRHGLLLANAYIYVVQLPAKILTADNQTYMAVQGSTAYLLCKAFGAPVPSVQWLDEDGTTVLQDERFFPYANGTLGIRDLQANDTGRYFCLAANDQNNVTIMANLKVKDATQITQGPRSTIEKKGSRVTFTCQASFDPSLQPSITWRGDGRDLQELGDSDKYFIEDGRLVIHSLDYSDQGNYSCVASTELDVVESRAQLLVVGSPGPVPRLVLSDLHLLTQSQVRVSWSPAEDHNAPIEKYDIEFEDKEMAPEKWYSLGKVPGNQTSTTLKLSPYVHYTFRVTAINKYGPGEPSPVSETVVTPEAAPEKNPVDVKGEGNETTNMVITWKPLRWMDWNAPQVQYRVQWRPQGTRGPWQEQIVSDPFLVVSNTSTFVPYEIKVQAVNSQGKGPEPQVTIGYSGEDYPQAIPELEGIEILNSSAVLVKWRPVDLAQVKGHLRGYNVTYWREGSQRKHSKRHIHKDHVVVPANTTSVILSGLRPYSSYHLEVQAFNGRGSGPASEFTFSTPEGVPGHPEALHLECQSNTSLLLRWQPPLSHNGVLTGYVLSYHPLDEGGKGQLSFNLRDPELRTHNLTDLSPHLRYRFQLQATTKEGPGEAIVREGGTMALSGISDFGNISATAGENYSVVSWVPKEGQCNFRFHILFKALGEEKGGASLSPQYVSYNQSSYTQWDLQPDTDYEIHLFKERMFRHQMAVKTNGTGRVRLPPAGFATE
B2: ROBO3-A peptide (peptide)
peptide: LKEEEGRITIRGGK
B3: CNTN2-A peptide (peptide)
peptide: FIPTDGRHFVSQTTG
B4: DCC-A peptide (peptide)
peptide: PIPGDSRVVVLPSG

Columns and labels:
SPR = biological target: the molecule itself; assay: SPR
[1] = biological target: B1; assay: SPR

Binder	Kd (SPR)	percent reduction of the RUmax of L1CAM-ED binding to immobilised L1CAM-ED [1]
B1	0.017 ± 0.0013 µM	
B2		20%
B3		20%
B4		20%
